Measured values from IntAct's records for PubMed 19805317.

B1: Voltage-dependent calcium channel gamma-2 subunit (Homo sapiens), Q9Y698 (parent)
chain: MGLFDRGVQMLLTTVGAFAAFSLMTIAVGTDYWLYSRGVCKTKSVSENETSKKNEEVMTHSGLWRTCCLEGNFKGLCKQIDHFPEDADYEADTAEYFLRAVRASSIFPILSVILLFMGGLCIAASEFYKTRHNIILSAGIFFVSAGLSNIIGIIVYISANAGDPSKSDSKKNSYSYGWSFYFGALSFIIAEMVGVLAVHMFIDRHKQLRATARATDYLQASAITRIPSYRYRYQRRSRSSSRSTEPSHSRDASPVGIKGFNTLPSTEISMYTLSRDPLKAATTPTATYNSDRDNSFLQVHNCIQKENKDSLHSNTANRRTTPV

Variants of: B1
Conditions: with gria1_rat Gria1, P19490
gria1_rat Gria1, P19490, sequence (P19490 whole entry): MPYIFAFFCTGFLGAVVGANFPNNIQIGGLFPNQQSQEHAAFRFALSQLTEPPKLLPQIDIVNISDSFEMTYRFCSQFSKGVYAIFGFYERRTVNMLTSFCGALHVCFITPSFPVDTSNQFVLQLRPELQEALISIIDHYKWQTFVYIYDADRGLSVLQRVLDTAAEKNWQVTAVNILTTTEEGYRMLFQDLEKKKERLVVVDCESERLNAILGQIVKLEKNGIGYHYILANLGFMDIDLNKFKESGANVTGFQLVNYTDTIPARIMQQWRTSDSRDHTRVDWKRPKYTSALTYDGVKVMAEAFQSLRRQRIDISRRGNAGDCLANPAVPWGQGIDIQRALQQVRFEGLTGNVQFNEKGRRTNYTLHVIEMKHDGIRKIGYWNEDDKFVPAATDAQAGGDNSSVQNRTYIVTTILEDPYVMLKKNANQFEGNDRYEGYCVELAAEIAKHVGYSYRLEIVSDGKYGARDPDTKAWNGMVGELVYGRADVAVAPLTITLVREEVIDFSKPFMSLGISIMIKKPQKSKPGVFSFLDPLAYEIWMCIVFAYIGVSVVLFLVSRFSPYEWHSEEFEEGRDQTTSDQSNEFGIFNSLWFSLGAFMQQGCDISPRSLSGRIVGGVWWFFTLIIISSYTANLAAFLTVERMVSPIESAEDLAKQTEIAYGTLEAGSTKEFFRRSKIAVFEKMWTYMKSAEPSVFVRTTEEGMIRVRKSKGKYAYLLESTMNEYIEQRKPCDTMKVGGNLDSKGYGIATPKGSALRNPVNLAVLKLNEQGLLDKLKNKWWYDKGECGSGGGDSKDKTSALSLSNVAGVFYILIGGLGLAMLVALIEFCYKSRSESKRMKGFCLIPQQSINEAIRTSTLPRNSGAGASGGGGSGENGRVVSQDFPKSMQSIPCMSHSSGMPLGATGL

Variant	effect of a mutation on the interaction
C302S	decreasing interaction
